From patent US20190233512A1 (SUTRO BIOPHARMA, published 2019)

How the values were obtained:
[1] = target: T1, Cynomolgus folate receptor alpha (cynomolgus monkey, UniProt P15328 25-234 (human entry)); experiment: FACS, CHO-cFOLR1 cells
T1 construct: Stably expressed on CHO cells (CHO-cFOLR1); also called cynomolgus FOLR1; CHO-cFOLR1

[2] = target: T2, Human folate receptor alpha (hFOLR1) (human, UniProt P15328 25-234); experiment: FACS, CHO-hFOLR1 cells
T2 construct: Stably expressed on CHO cells (CHO-hFOLR1) for flow cytometry; endogenous on FOLR1-positive KB and Igrov1 cells in the killing assay; also called human FOLR1; FolRα
T2 sequence (P15328 25-234 limits assumed): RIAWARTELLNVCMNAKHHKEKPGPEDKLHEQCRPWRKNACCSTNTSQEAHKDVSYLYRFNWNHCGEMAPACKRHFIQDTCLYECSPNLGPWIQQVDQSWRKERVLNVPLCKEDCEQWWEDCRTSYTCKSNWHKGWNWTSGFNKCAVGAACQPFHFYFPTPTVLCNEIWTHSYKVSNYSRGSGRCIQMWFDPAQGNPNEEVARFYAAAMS
Protocol: CHO cells were transfected to stably express human (CHO-hFOLR1), cynomolgus (CHO-cFOLR1), or mouse (CHO-mFOLR1) target molecule FOLR1 on the cell surface. Parental CHO cells were used as a negative control to determine background binding levels. Parental CHO and stably transfected CHO-hFOLR1, CHO-cFOLR1, and CHO-mFOLR1 cells were cultured in Ham's F-12: high glucose DMEM (50:50) (Corning, Cellgro-Mediatech) supplemented with 10% heat-inactivated fetal bovine serum (Corning, Cellgro-Mediatech), 1% Penicillin/Streptomycin (Corning, Cellgro-Mediatech) and 2 mmol/L-glutamax (Life Technology).
A mixture of fluoresecent-labeled parental CHO cells and unlabeled CHO-hFOLRlcells were prepared as follows. Parental CHO cells were washed twice in PBS and incubated in PBS containing with 1 nM CellTrace™ Oregon Green488® (Life Technologies) at 37° C. for 30 minutes. Labeled parental CHO cells were then washed 2× with Ham's F-12 media and 2× with FACS buffer (PBS with 1% bovine serum albumin). Unlabeled CHO-hFOLR1 cells were similarly washed and prepared. Labeled parental CHO and unlabeled CHO-hFOLR1 cells were combined at 1:1 ratio and seeded at 50 μL per well (200,000 cells per well) in 96 well polypropylene plates. Cells were mixed with 50 μL of test antibodies (i.e., anti-FOLR1 variants) serially diluted in FACS buffer and incubated on ice for 60 mins. Cells were washed with FACS buffer and incubated on ice for 60 mins with 100 μL FACS buffer containing 2.5 μg/mL R-Phycoerythrin-conjugated goat anti-Human IgG (Jackson ImmunoResearch Laboratories, West Grove, Pa.). Cells were washed twice with FACS buffer, fixed in 2% paraformaldehyde in PBS (Santa Cruz Biotechnology; Dallas, Tex.) for 10 mins on ice in the dark, and analyzed using the BD LSR II Flow Cytometer (BD Biosciences; San Jose, Calif.). Data were analyzed using FlowJo® software (FlowJo, LLC; Ashland, Oreg.) to determine mean fluorescence intensities. Binding constants were calculated using the statistical software, GraphPad Prism (GraphPad Software; La Jolla, Calif.) using the nonlinear regression equation, one site-specific binding with Hill slope. Secondary antibody alone was used as a control, in addition to measuring non-specific antibody binding to CHO parental cells.

[3] = target: T3, Murine folate receptor alpha (mouse, UniProt P35846 25-232); experiment: FACS, CHO-mFOLR1 cells
T3 construct: Stably expressed on CHO cells (CHO-mFOLR1); also called mouse FOLR1; CHO-mFOLR1
T3 sequence (P35846 25-232 limits assumed): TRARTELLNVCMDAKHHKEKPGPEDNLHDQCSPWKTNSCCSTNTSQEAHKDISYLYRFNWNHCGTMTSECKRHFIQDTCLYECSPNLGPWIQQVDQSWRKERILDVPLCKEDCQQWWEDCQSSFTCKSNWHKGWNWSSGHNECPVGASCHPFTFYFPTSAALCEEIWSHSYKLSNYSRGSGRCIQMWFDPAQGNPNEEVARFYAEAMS

T1 sequence (P15328 other isoform, or with tags, fused parts or gaps limits assumed): as the sequence (P15328 25-234 limits assumed) above, with I2T, W4R, R37K, Q117R, A146P, H171Y counted along it

Binder | Bmax [1] [MFI] | Bmax [2] [MFI] | Bmax [3] [MFI]
SRP1848-C03 (antibody, V domains shown, VH/VL only; Fc-bearing IgG format with trastuzumab LC, HIS/FLAG-tagged, cell-free expressed; constant regions not tied; also called Antibody 19) VH: EVQLVESGGGLVQPGGSLRLSCAASGFNIGVYSIHWVRQAPGKGLEWVGEIYPIDGNTDYADSVKGRFTISADTSKNTAYLQMNSLRAEDTAVYYCARGSWAWRSGYSYYLDYWGQGTLVTVSS VL: not shown | 25100 | 29100 | 3310
SRP1848-E07 (antibody, V domains shown, VH/VL only; Fc-bearing IgG format with trastuzumab LC, HIS/FLAG-tagged, cell-free expressed; constant regions not tied; also called Antibody 36) VH: EVQLVESGGGLVQPGGSLRLSCAASGFNIRKSSIHWVRQAPGKGLEWVGEIFPYDGSTDYADNVKGRFTISADTSKNTAYLQMNSLRAEDTAVYYCARGAWSWRSGYGYYIDYWGQGTLVTVSS VL: not shown | 20400 | 27300 | 11800
SRP1848-F10 (antibody, V domains shown, VH/VL only; Fc-bearing IgG format with trastuzumab LC, HIS/FLAG-tagged, cell-free expressed; constant regions not tied; also called Antibody 45) VH: EVQLVESGGGLVQPGGSLRLSCAASGFNISNNSIHWVRQAPGKGLEWVGSIFPNDGYTDYADSVKGRFTISADTSKNTAYLQMNSLRAEDTAVYYCARGSWFWRSGYGYYLDYWGQGTLVTVSS VL: not shown | 20700 | 25600 | 1740
SRP1848-F07 (antibody, V domains shown, VH/VL only; Fc-bearing IgG format with trastuzumab LC, HIS/FLAG-tagged, cell-free expressed; constant regions not tied; also called Antibody 42) VH: EVQLVESGGGLVQPGGSLRLSCAASGFNISNHSIHWVRQAPGKGLEWVGEIYPNDGITDYADSVKGRFTISADTSKNTAYLQMNSLSAEDTAVYYCARGSWDWRSGYSYYLDYWGQGTLVTVSS VL: not shown | 18700 | 27400 | 1390
SRP1848-C05 (antibody, V domains shown, VH/VL only; Fc-bearing IgG format with trastuzumab LC, HIS/FLAG-tagged, cell-free expressed; constant regions not tied; also called Antibody 21) VH: EVQLVESGGGLVQPGGSLRLSCAASGFNIRKYSIHWVRQAPGKGLEWVGDIFPIDGINDYADSVKGRFTISADTSKNTAYLQMNSLRAEDTAVYYCARGSWSWKAGYGYYLDYWGQGTLVTVSS VL: not shown | 15200 | 26800 | 4130
SRP1848-H01 (antibody, V domains shown, VH/VL only; Fc-bearing IgG format with trastuzumab LC, HIS/FLAG-tagged, cell-free expressed; constant regions not tied; also called Antibody 55) VH: EVQLVESGGGLVQPGGSLRLSCAASGFNIRTQSIHWVRQAPGKGLEWIGDIFPIDGITDYADSVKGRFTISADTSKNTAYLQMNSLRAEDTAVYYCARGSWSWPSGMDYYLDYWGQGTLVTVSS VL: not shown | 17200 | 27000 | 3950
SRP1848-F02 (antibody, V domains shown, VH/VL only; Fc-bearing IgG format with trastuzumab LC, HIS/FLAG-tagged, cell-free expressed; constant regions not tied; also called Antibody 38) VH: EVQLVESGGGLVQPGGSLRLSCAASGFNIRTYSIHWVRQAPGKGLEWVGSIFPNDGTTDYADSVKGRLTISADTSKNTAYLQMNSLRAEDTAVYYCARGSWSWQAGYGYYLDYWGQGTLVTVSS VL: not shown | 14900 | 25700 | 2740
SRP1848-D05 (antibody, V domains shown, VH/VL only; Fc-bearing IgG format with trastuzumab LC, HIS/FLAG-tagged, cell-free expressed; constant regions not tied; also called Antibody 27) VH: EVQLVESGGGLVQPGGSLRLSCAASGFNISISYIHWVRQAPGKGLEWVGGISPIDGYTDYADSVKGRFTISADTSKNTAYLQMNSLRAEDTAVYYCARGSWSWRAGYGYYLDYWGQGTLVTVSS VL: not shown | 22200 | 26700 | 1360
SRP1848-E02 (antibody, V domains shown, VH/VL only; Fc-bearing IgG format with trastuzumab LC, HIS/FLAG-tagged, cell-free expressed; constant regions not tied; also called Antibody 32) VH: EVQLVESGGGLVQPGGSLRLSCAASGFNIGKYSIHWVRQAPGKGLEWVGEIYPNDGNTDYADSVKGRFTISADTSKNTAYLQMNSLRAEDTAVYYCARGSWSWRSGYGYYLDYWGQGTLVTVSS VL: not shown | 18700 | 23800 | 1470
SRP1848-F09 (antibody, V domains shown, VH/VL only; Fc-bearing IgG format with trastuzumab LC, HIS/FLAG-tagged, cell-free expressed; constant regions not tied; also called Antibody 44) VH: EVQLVESGGGLVQPGGSLRLSCAASGFNISNHYIHWVRQAPGKGLEWVGGISPLDGYTDYADSVKGRFTISADTSKNTAYLQMNSLRAEDTAVYYCARGAWSWRSGYGYYIDYWGQGTLVTVSS VL: not shown | 24200 | 23800 | 1670
SRP1848-D10 (antibody, V domains shown, VH/VL only; Fc-bearing IgG format with trastuzumab LC, HIS/FLAG-tagged, cell-free expressed; constant regions not tied; also called Antibody 30) VH: EVQLVESGGGLVQPGGSLRLSCAASGFNISRNSIHWVRQAPGKGLEWVGWISPNDGTTDYADSVKGRFTISADGSKNTAYLQMNSLRAEDTAVYYCARGAWSWRSGYGYYIDYWGQGTLVTVSS VL: not shown | 20600 | 26500 | 1860
SRP1848-C07 (antibody, V domains shown, VH/VL only; Fc-bearing IgG format with trastuzumab LC, HIS/FLAG-tagged, cell-free expressed; constant regions not tied; also called Antibody 22) VH: EVQLVESGGGLVQPGGSLRLSCAASGFNIRKYSIHWVRQAPGKGLEWVGDIFPIDGITDYADSMKGRFTISADTSKNTAYLQMNSLRAEDTAVYYCARGSWSWPAGYGYYQDYWGQGTLVTVSS VL: not shown | 18100 | 28800 | 3170
SRP1848-F05 (antibody, V domains shown, VH/VL only; Fc-bearing IgG format with trastuzumab LC, HIS/FLAG-tagged, cell-free expressed; constant regions not tied; also called Antibody 40) VH: EVQLVESGGGLVQPGGSLRLSCAASGFNISKSSIHWVRQAPGKGLEWVGEIYPNDGSTDYADSVKGRFTISADTSKNTAYLQMNSLRAEDTAVYYCARGSWAWRSGYSYFLDYWGQGTLVTVSS VL: not shown | 24700 | 27200 | 5100
SRP1848-D02 (antibody, V domains shown, VH/VL only; Fc-bearing IgG format with trastuzumab LC, HIS/FLAG-tagged, cell-free expressed; constant regions not tied; also called Antibody 24) VH: EVQLVESGGGLVQPGGSLRLSCAASGFNISHNYIHWVRQAPGKGLEWVGGITPQDGYTDYADSVKGRFTISADTSKNTAYLQMNRLRAEDTAVYYCARGAWSWRAGYGYYLDYWGQGTLVTVSS VL: not shown | 28000 | 28800 | 916
SRP1848-C04 (antibody, V domains shown, VH/VL only; Fc-bearing IgG format with trastuzumab LC, HIS/FLAG-tagged, cell-free expressed; constant regions not tied; also called Antibody 20) VH: EVQLVESGGGLVQPGGSLRLSCAASGFNIRHYSIHWVRQAPGKGLEWVGEIYPGPGNTDYADSVKGRFTISADTSKNTAYLQMNSLRAEDTAVYYCARGSLSWRAGYGYYLDYWGQGTLVTVSS VL: not shown | 22000 | 26300 | 2510
SRP1848-F11 (antibody, V domains shown, VH/VL only; Fc-bearing IgG format with trastuzumab LC, HIS/FLAG-tagged, cell-free expressed; constant regions not tied; also called Antibody 46) VH: EVQLVESGGGLVQPGGSLRLSCAASGFNISNNYIHWVRQAPGKGLEWVGGITPIDGNTDYADSVKGRFTISADTSMNTAYLQMNSLRAEDTAVYYCARGSWYWRAGYGYYLDYWGQGALVTVSS VL: not shown | 21800 | 26800 | 1760
SRP1848-C10 (antibody, V domains shown, VH/VL only; Fc-bearing IgG format with trastuzumab LC, HIS/FLAG-tagged, cell-free expressed; constant regions not tied; also called Antibody 23) VH: EVQLVESGGGLVQPGGSLRLSCAASGFNIRTYYIHWVRQAPGKGLEWVGGISPIDGYTDYADSVKGRFTISADTSKNTAYLQMNSLRAEDTAVYYCARGSWSWPAGYGYYLDYWGQGTLVTVSS VL: not shown | 16000 | 27500 | 2330
SRP1848-G01 (antibody, V domains shown, VH/VL only; Fc-bearing IgG format with trastuzumab LC, HIS/FLAG-tagged, cell-free expressed; constant regions not tied; also called Antibody 47) VH: EVQLVESGGGLVQPGGSLRLSCAASGFNISRHSIHWVRQAPGKGLEWVGWIAPNDGSTDYADSVKGRFTISADTSKNTAYLQMNSLRAEDTAVYYCARGSWAWRSGYSYFLDYWGQGTLVTVSS VL: not shown | 20900 | 27400 | 1990
SRP1848-F01 (antibody, V domains shown, VH/VL only; Fc-bearing IgG format with trastuzumab LC, HIS/FLAG-tagged, cell-free expressed; constant regions not tied; also called Antibody 37) VH: EVQLVESGGGLVQPGGSLRLSCAASGFNIRTYSIHWVRQAPGKGLEWVGSIFPNDGTTDYADSVKGRFTISADTSKNTAYLQMNSLRAEDTAVYYCARGSWAWRAGYSYYLDYWGQGTLVTVSS VL: not shown | 21500 | 25200 | 3750
SRP1848-G03 (antibody, V domains shown, VH/VL only; Fc-bearing IgG format with trastuzumab LC, HIS/FLAG-tagged, cell-free expressed; constant regions not tied; also called Antibody 48) VH: EVQLVESGGGLVQPGGSLRLSCAASGFNISTYYIHWVRQAPGKGLEWVGGITPSDGFTDYADSVKGRSTISADTSKNTAYLQMNSLRAEDTAVYYCARGSWSWPSGHGYFLDYWGQGTLVTVSS VL: not shown | 19200 | 26400 | 2220
SRP1848-A02 (antibody, V domains shown, VH/VL only; Fc-bearing IgG format with trastuzumab LC, HIS/FLAG-tagged, cell-free expressed; constant regions not tied; also called Antibody 2) VH: EVQLVESGGGLVQPGGSLRLSCAASGFNISGFRIHWVRQAPGKGLEWVAGIYPESGATYYADSVKGRFTISADTSKNTAYLQMNSLRAEDTAVYYCARHLYVWDWVLDHVLDYWGQGTLVTVSS VL: not shown | 18500 | 24700 | 18600
